The term EC50 denotes the concentration that produces a half-maximal response. A low value points to higher potency in that assay. For orientation: Kd means the free concentration of one partner at which half of the binding sites on the other are occupied at equilibrium, for simple one-to-one binding. Low readings indicate tighter binding, high ones weaker binding. Usually koff stands for the rate constant with which the complex falls apart. Higher therefore signals a short-lived complex. What is called kon is the rate constant with which the complex forms. A higher kon goes with faster complex formation.

The target of test [1] is T1, human MSLN protein endogenously expressed on OVCAR3 tumor cells (human, UniProt Q13421 296-598).
T1 construct: whole, on cells; endogenous expression on a tumor cell line; also called human mesothelin
T1 sequence (Q13421 other isoform, or with tags, fused parts or gaps): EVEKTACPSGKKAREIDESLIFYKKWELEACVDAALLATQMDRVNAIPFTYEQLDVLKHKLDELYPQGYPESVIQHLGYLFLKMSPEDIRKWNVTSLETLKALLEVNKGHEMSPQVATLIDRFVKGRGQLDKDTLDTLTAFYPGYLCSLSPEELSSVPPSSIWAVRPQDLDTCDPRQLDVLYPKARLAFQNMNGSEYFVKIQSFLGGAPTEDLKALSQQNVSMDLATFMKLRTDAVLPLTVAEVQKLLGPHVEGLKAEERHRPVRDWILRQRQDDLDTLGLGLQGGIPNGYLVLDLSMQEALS
Nature of the test: FACS on OVCAR3 cells.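 Further: flow cytometry of chimeric antibody binding to OVCAR3 cells, 2 h on ice, read as cellular mean fluorescence intensity.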

Test [2] concerns the target T2, human MSLN-R3 protein expressed on HEK293T cells (HEK293T-hMSLN-R3) (human, UniProt Q13421 487-606).
T2 construct: C-terminal limit uncertain
In words: FACS on HEK293T-hMSLN-R3 cells.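 Further: chimeric antibodies incubated with cells on ice for 2 h, binding read by flow cytometry as mean fluorescence intensity.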
Experimental: The desired cells were expanded to the logarithmic growth phase in a T-75 cell culture flask. […] After the cells from the previous step were subjected to cell counting, the cell pellet was resuspended to 2×10⁶ cells/mL in a blocking buffer of [PBS+2% (w/w) BSA] and added into a 96-well FACS reaction plate at 50 μL/well. A chimeric antibody (a sample to be tested) was added at 50 μL/well, and the plate was incubated on ice for 2 h. […] After the plate was centrifuged and washed 5 times with a PBST buffer, assay and analysis were performed by FACS (FACS CantoII, purchased from BD). Data analysis was performed by software (Flowjo) to obtain the mean fluorescence intensity (MFI) of the cells.

The target of test [3] is T3, human MSLN-FL-his protein (human, UniProt Q13421 296-580).
T3 construct: made in HEK293E cells, purified on nickel column; also called hMSLN-FL-his; human MSLN full-length protein; not shown: His tag
T3 sequence (Q13421 other isoform, or with tags, fused parts or gaps): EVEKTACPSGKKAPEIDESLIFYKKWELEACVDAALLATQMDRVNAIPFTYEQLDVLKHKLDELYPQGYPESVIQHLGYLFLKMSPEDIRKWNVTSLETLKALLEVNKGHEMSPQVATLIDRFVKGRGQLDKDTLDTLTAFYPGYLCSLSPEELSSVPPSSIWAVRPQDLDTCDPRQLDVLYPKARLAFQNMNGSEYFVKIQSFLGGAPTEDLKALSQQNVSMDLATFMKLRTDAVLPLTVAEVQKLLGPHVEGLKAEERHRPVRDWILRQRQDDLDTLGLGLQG
In words: competitive ELISA; row F8-4.5.

For test [4], the target named is T3, human MSLN-FL-his protein. In words: competitive ELISA; row F8-7.5. For orientation: ELISA stands for enzyme-linked immunosorbent assay.
Experimental: (§1) In order to identify antigen-binding sites of antibodies, MSLN chimeric antibodies were grouped using competitive ELISA.
(§2) The chimeric antibodies were diluted to 2 μg/mL with PBS and allowed to coat 96-well high-adsorption ELISA plates at 50 μL/well. After the plates were coated at 4° C. overnight, 250 μL of a blocking buffer (PBS containing 2% (w/w) BSA) was added for two hours of blocking at room temperature. 40 μg/mL of the antibodies to be tested were added, and then the human MSLN-FL-His protein with an EC₈₀ concentration corresponding to each of the antibodies to be tested was added for incubation for 2 h. The plates were washed 5 times with PBS, an HRP-labeled anti-His secondary antibody (purchased from Genescript, Cat. No. A00612) was then added for incubation for 1 h, and the plates were washed 5 times again. A TMB substrate was added at 50 μL/well, and after 10 minutes of incubation at room temperature, a stop solution (1.0 M HCl) was added at 50 μL/well. OD₄₅₀ nm values were read using an ELISA plate reader (Insight, purchased from PerkinElmer), and the competition rate between the antibodies was calculated according to the OD₄₅₀ nm values using a formula.
Test [5] deals with T3, human MSLN-FL-his protein. Nature of the test: competitive ELISA; row Tab021.
Experimental: as §1, §2
Test [6] deals with T3, human MSLN-FL-his protein. In words: competitive ELISA; row Tab142.
Experimental: as §1, §2
Test [7] has as its target T3, human MSLN-FL-his protein. In words: competitive ELISA; row F8-13.8.
Experimental: as §1, §2
The target in test [8] is T3, human MSLN-FL-his protein. Nature of the test: competitive ELISA; row F8-18.9.
Experimental: as §1, §2
Test [9] addresses T3, human MSLN-FL-his protein. In words: competitive ELISA; row F8-27.1.
Experimental: as §1, §2
Test [10] concerns the target T3, human MSLN-FL-his protein. Nature of the test: competitive ELISA; row F8-5.15.
Experimental: as §1, §2
Test [11] has as its target T3, human MSLN-FL-his protein. Nature of the test: competitive ELISA; row F8-12.13.
Experimental: as §1, §2
Test [12] has as its target T3, human MSLN-FL-his protein. In words: competitive ELISA; row F8-15.19.
Experimental: as §1, §2
The target in test [13] is T3, human MSLN-FL-his protein. Nature of the test: competitive ELISA; row F8-19.21.
Experimental: as §1, §2
Test [14] has as its target T3, human MSLN-FL-his protein. In words: competitive ELISA; row F8-31.22.
Experimental: as §1, §2
Test [15] deals with T3, human MSLN-FL-his protein. In words: SPR (Biacore), antibody captured on Protein A chip.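 Further: flow cell at 25 °C, antigen injected for 240 s at five concentrations from 200 nM downward, dissociation followed up to 600 s, double-referenced, fitted with Langmuir 1:1 model.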
Experimental: The flow cell was set at 25° C. The sample block was set at 16° C. Both were pretreated with the running buffer. In each cycle, first, the antibody to be tested was captured using the Protein A chip, and then a single concentration of human MSLN-FL-his protein was injected. […] The association was determined by injecting different concentrations of human MSLN-FL-his in solution for 240 s on end, wherein the flow rate was 30 μL/min, and the protein was diluted in a 1:1 dilution ratio from 200 nM (see detailed results for actual concentrations tested) to obtain 5 concentrations in total. The dissociation phase was monitored for up to 600 s and triggered by switching from the sample solution to the running buffer. The surface was regenerated by washing with 10 mM glycine solution (pH 1.5) at a flow rate of 30 μL/min for 30 s. The difference in bulk refractive index was corrected by subtracting the responses obtained from the goat anti-human Fc surface. Blank injections were also subtracted (=double reference). To calculate the apparent KD and other kinetic parameters, the Langmuir 1:1 model was used.

T2 sequence (Q13421 495-614): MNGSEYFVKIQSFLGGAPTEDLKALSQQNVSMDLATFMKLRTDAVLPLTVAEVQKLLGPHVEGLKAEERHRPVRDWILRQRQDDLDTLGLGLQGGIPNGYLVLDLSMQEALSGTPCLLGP

B1: S009-F8-31.22 (antibody, human IgG1, kappa, V domains shown)
VH: EVQLVESGGDLVKPGGSLKLSCAASGFTFSTYGMSWVRQTPDKRLEWVATISSGGSYTYYPDSLKGRFTISRDNAKNTLYLQMSSLKSEDTAMYYCARHEGYYYGKDYWGQGTTLTVSS
VL: DIVLTQSPATLSVTPGDSVSLSCRASHSISNNLHWYQQKSHESPRLLIKYASQSISGIPSKFSGSGSGTDFTLSINSVETEDFGMYFCQQTNSWPLTFGAGTKLELKR
notes: human-murine chimeric antibody, human IgG1/kappa constant regions
In test [1], B1 came in with a concentration for a half-maximal effect (EC50) of 0.64 nM. Moreover, the “Maximum mean fluorescence intensity” value in test [1] is 7750; in [2] it was 189. Further, the binding result in [2] is recorded as “no binding”. For the same molecule, the competition rate was -2.53% in test [3]; 18.1% in test [4]; 10.3% in test [5]; 12.9% in test [6]; 5.21% in [7]; 0.11% in test [8]. In addition, the competition rate is 11.7% in [9]; 86.5% in [10]; 64.8% in [11]; 83.2% in [12]; 16.3% in [13]; 69.3% in [14]. This molecule also showed a Kd in [15] of 87.6 nM. The molecule further returned a koff in [15] of 0.0276 s⁻¹. In [15], this molecule returned a kon of 315000 M⁻¹ s⁻¹.

B2: S009-F8-5.15 (antibody, human IgG1, kappa, V domains shown)
VH: QVQLQQPGTELVKPGASVKLSCKASGYTFTSYWMHWVKQRPGQGLEWIGHSNPSNGGTNYNEKFKSKATLTVDKSSSTAYMQLSSLTSEDSAVYYCARWVRGSNYEYFDVWGTGTTVTVSS
VL: DIVMTQSQKFMSTTVGDRVSIICKASQNVGSAVAWCQQKPGQSPKLLIYSASNRYTGVPDRFTGSGSGTDFTLTISNMQSEDLADYFCQQYSSYPLTFAGGTKLEIKR
notes: as for B1
Molecule B2 yielded an EC50 in [1] of 4.08 nM. The “Maximum mean fluorescence intensity” value was found to be 4920 in [1] and 98 in test [2]. In addition, the binding result in [2] is on record as “no binding”. Moreover, the competition rate in test [3] was 29.6%; in test [4] it was -148%; in test [5] it was 1.09%; in test [6], 15.3%; in test [7], 7.5%; in [8], 8.9%. The competition rate in [9] worked out at 39.7%; in [10], 96.8%; in test [11], 79.2%; in [12], 82.2%; in test [13] it was 25.5%; in test [14], 79%. The molecule also registered a Kd in test [15] of 27.4 nM. Also, in test [15], the koff was found to be 0.017 s⁻¹. This molecule showed an association rate constant (kon) in [15] of 620000 M⁻¹ s⁻¹.

B3: S009-F8-13.8 (antibody, human IgG1, kappa, V domains shown)
VH: EFQLQQSGPELVKPGASVKISCKASGYSFTDYNMNWVKQTNGKSLEWIGIINPNYGTSSYNQKFKGKATLTVDQSSSTAYMQLNSLTSEDSAVYYCARVGRDNSGFDYWGQGTTLTVSS
VL: QIVLTQSPAIMSASPGEKVTMTCSASSSVSYMYWYQQKPGSSPRLLIYDTSNLASGVPVRFSGSGSGTSYSLTISRMEAEDAATYYCQQWSSYPPTFGSGTELEIKR
notes: as for B1
In turn, B3 gave a 50% effective concentration (EC50) in test [1] of 1.42 nM. Also, the entries for the “Maximum mean fluorescence intensity” value in test [1] and in test [2] were 13000 and 95, respectively. Further, the binding result in test [2] is “no binding”. For the same molecule, the competition rate in test [3] is 93%; in test [4], -135%; in test [5] it was 14.2%; in test [6], 93.8%; in [7], 86.2%; in test [8], 11.3%. For the same molecule, the competition rate came to 98.4% in [9]; 99.9% in test [10]; 97.9% in [11]; 99.8% in [12]; 96.5% in test [13]; 99% in test [14]. Binding in [15] was put at a Kd of 0.95 nM. Besides, the off-rate constant (koff) in test [15] came to 0.00125 s⁻¹. Moreover, the kon in test [15] came out at 1.31e+06 M⁻¹ s⁻¹.

B4: S009-F8-15.19 (antibody, human IgG1, kappa, V domains shown)
VH: EFQLQQSGPELVKPGASVKISCKASGYSFTDYNMNWVKQSNGKSLEWIGIINPYYGTTSNNQNFKGKATLTVDQSSSTAYMQLNSLTSDDSAVYYCARWLRRDAMDYWGQGTSVTVSS
VL: DIVMTPSHKFMSTSVGDRVSIACKASQDVGSSVAWYQQKPGQSPKLLIYWTSTRHTGVPDRFTGSGSGTDFTLTISNVQSEDLADYFCQQYSSYPWTFGGGTKLEIKR
notes: as for B1
B4: in [1], the concentration giving a half-maximal response (EC50) stood at 3.16 nM. Moreover, the “Maximum mean fluorescence intensity” value was 8140 in [1] and 165 in test [2]. In addition, in test [2], the binding result was “no binding”. The competition rate in [3] was 43.8%; in [4] it was -117%; in test [5] it was -2.08%; in test [6] it was 39.3%; in test [7], 24%; in [8] it was 8.37%. The competition rate in [9] is 75.5%; in test [10], 99.3%; in test [11], 89.3%; in [12] it was 94.1%; in test [13] it was 46.9%; in [14], 90.7%. The Kd in test [15] was 5.37 nM. Moreover, the koff in [15] stood at 0.00724 s⁻¹. This molecule gave an on-rate constant (kon) in test [15] of 1.35e+06 M⁻¹ s⁻¹.
